Series [1] deals with HCMV. Kind of series: Viral attachment and internalization assay (pp65 immunofluorescence). Type of series: cell-based, Human cytomegalovirus. Particulars: HEL. The procedure:
(A) HEL cells were pretreated with PBS (20 min 4° C.), IMC-3G3 (2 h, 37° C., 10 μg/ml), or PDGF-AA (20 min, 4° C., 10 ng/ml) prior to infection with HCMV (MOI of 1, 4° C., 1 h). Cells were returned to 37° C. for 30 minutes, and processed for pp65^HCMV and PDGFRα double immunofluorescence. […] All conditions were assayed in triplicate cultures. One hundred cells in 4 low magnification fields were counted. Bars represent SD.
Viral Attachment and Internalization Assays. Mouse fibroblasts and HEL cells (72 hours following siRNA transfections) were incubated with HCMV (MOI of 0.5) or mock treated for 1 hour at 4° C., after which cells were returned to 37° C. for 15, 30, or 60 min. Cells were fixed using methanol (20 min) and processed for pp65 immunofluorescence. Four low power fields were counted for each condition and pp65 positive were recorded for each 100 cells. Internalization assays were repeated twice.

Series [2] relates to HCMV. Kind of series: HCMV IE1 / viral gene expression, western blot of infected cells. Type of series: cell-based, Human cytomegalovirus. The procedure: (A) pp65 immunofluorescence after HCMV treatment (1 h, 4° C.) followed by shifting to 37° C. for indicated times. Rows represent (top to bottom): HEL, PDGFRα null fibroblasts, parental fibroblasts, null fibroblasts overexpressing hPDGFRα, HEL transfected with control, or PDGFRα siRNA. Nuclei were stained with DAPI. (B) Average±S.D. pp65 positive/100 cells counted in triplicate from (A). (C) Mock or HCMV infected cells were analyzed by western blotting with the indicated antibodies. Lanes 1-4 indicate HEL, 325S, PDGFRα null and PDGFRα null over-expressing hPDGFRα, respectively. (D) HEL transfected with control or PDGFRα siRNA were mock (lanes 1) or HCMV-treated (lanes 2) and subjected to western blots with indicated antibodies. (E) Western blot of HEL and U87 lysates after infection with mock (lanes 1), HCMV (lanes 2), or HCMV pretreated with IMC-3G3 (10 μg/ml, 12 h, lanes 3) or Gleevec (100 nM, 1 h, lanes 4). […] 6 dpi, supernatants were used to infect naïve HEL cells, followed by IE1 immunostaining and quantification (secondary infection). […]
HUVEC cells were pre-treated with IMC-3G3 (10 μg/ml, Imclone, 12 h), or Gleevec (100 nM, 1 h) prior to HCMV or mock infection. 12 hours post-infection, cell lysates were analyzed by western blot for the presence of IE1 gene product. […]
Western Blot, Immunoprecipitation, and Immunofluorescence analyses. […] Cell lysates were analyzed by SDS-PAGE. […]
A general note: A western blot detects proteins with antibodies after separation by electrophoresis.

Consider 2 molecules from patent US9340788B2 (priority 2007, dated 2016).

B1: p110α siRNA: mixture of 4 RNAi oligos, "smart pool" from Dharmacon, against PI3K p110α, SEQ ID NO: 5-8 (nucleic acid)
chain 1: GCGAAAUUCUCACACUAUU
chain 2: GUGGUAAAGUUCCCAGAUA
chain 3: GCUUAGAGUUGGAGUUUGA
chain 4: GACCCUAGCCUUAGAUAAA
modifications: pool of four siRNAs, further chemistry not given here
In the case of B1, the viral entry result in series [1] (p110α knockdown) is “allowed”. The IE1 expression entry in series [2] (HEL, siRNA 48 h prior to HCMV MOI of 1, western blot 2 h post-infection) was “inhibited”.

B2: PDGFRα siRNA: "smart Pool" siRNA to hPDGFRα (Dharmacon), SEQ ID NO: 1-4 (nucleic acid)
chain 1: CGAGACUCCUGUAACCUUAUU
chain 2: GAGCUUCACCUAUCAAGUUUU
chain 3: GACAGUGGCCAUUAUACUAUU
chain 4: GAAUAGGGAUAGCUUCCUGUU
modifications: pool of four siRNAs, further chemistry not given here
In the case of B2, in series [1] (siRNA knockdown, 60 min after shifting to 37° C., vs non-targeting control siRNA, p<0.001), the “viral internalization (nuclear pp65)” value is reported as “near complete blockade”. In series [2] (HEL cells pre-treated with siRNA, western blot, compared to controls), the “viral gene expression (IE1 and pp65)” value is on record as “undetectable”.
